Experimental data from paper PMC12416549 (2024).
Changes are numbered by the printed parent chain. Names may count otherwise.

Target: T1, TNFR1 (Homo sapiens, UniProt P19438)
T1 chain: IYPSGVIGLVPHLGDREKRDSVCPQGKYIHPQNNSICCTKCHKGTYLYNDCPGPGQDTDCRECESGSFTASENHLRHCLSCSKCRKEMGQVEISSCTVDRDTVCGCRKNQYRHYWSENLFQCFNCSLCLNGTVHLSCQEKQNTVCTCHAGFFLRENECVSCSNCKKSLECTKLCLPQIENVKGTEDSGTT
Experiment: yeast display SC50

B1: K69I (designed binder)
chain: SMEEEVEKAAKEYEKKKKEAIEKHLEKLKAKDKEAAERFLKELEEAAKEYAKDEAKTMSEEEAKRRAKIYKEKVLLSELSEEEQKEIKEAEEKLVRTILKYVEEAAK
  apparent Kd (screen): 0.446 nM

B2: A46I (designed binder)
chain: B1 chain with A46I, I69K
  apparent Kd (screen): 3 nM

B3: D53C (designed binder)
chain: B1 chain with D53C, I69K
  apparent Kd (screen): 2.73 nM

B4: E103P (designed binder)
chain: B1 chain with I69K, E103P
  apparent Kd (screen): 0.49 nM

B5: E103S (designed binder)
chain: B1 chain with I69K, E103S
  apparent Kd (screen): 0.49 nM

B6: K8W (designed binder)
chain: B1 chain with K8W, I69K
  apparent Kd (screen): 1.54 nM

B7: A51I (designed binder)
chain: B1 chain with A51I, I69K
  apparent Kd (screen): 12.5 nM

B8: S80F (designed binder)
chain: B1 chain with I69K, S80F
  apparent Kd (screen): 2.73 nM

B9: A47M (designed binder)
chain: B1 chain with A47M, I69K
  apparent Kd (screen): 0.446 nM

B10: K18Y (designed binder)
chain: B1 chain with K18Y, I69K
  apparent Kd (screen): 1.05 nM

B11: E61L (designed binder)
chain: B1 chain with E61L, I69K
  apparent Kd (screen): 1.69 nM

B12: T97A (designed binder)
chain: B1 chain with I69K, T97A
  apparent Kd (screen): 1.86 nM

B13: E81L (designed binder)
chain: B1 chain with I69K, E81L
  apparent Kd (screen): 0.653 nM

B14: L75C (designed binder)
chain: B1 chain with I69K, L75C
  apparent Kd (screen): 0.49 nM

B15: L43Q (designed binder)
chain: B1 chain with L43Q, I69K
  apparent Kd (screen): 0.446 nM

B16: A47Y (designed binder)
chain: B1 chain with A47Y, I69K
  apparent Kd (screen): 0.49 nM

B17: K85A (designed binder)
chain: B1 chain with I69K, K85A
  apparent Kd (screen): 0.539 nM

B18: K48N (designed binder)
chain: B1 chain with K48N, I69K
  apparent Kd (screen): 0.49 nM

B19: A36G (designed binder)
chain: B1 chain with A36G, I69K
  apparent Kd (screen): 0.446 nM

B20: E62N (designed binder)
chain: B1 chain with E62N, I69K
  apparent Kd (screen): 0.49 nM

B21: A10W (designed binder)
chain: B1 chain with A10W, I69K
  apparent Kd (screen): 3 nM

B22: A20M (designed binder)
chain: B1 chain with A20M, I69K
  apparent Kd (screen): 0.446 nM

B23: E14S (designed binder)
chain: B1 chain with E14S, I69K
  apparent Kd (screen): 7.07 nM

B24: K100R (designed binder)
chain: B1 chain with I69K, K100R
  apparent Kd (screen): 1.27 nM

B25: K15A (designed binder)
chain: B1 chain with K15A, I69K
  apparent Kd (screen): 0.956 nM

B26: K100Y (designed binder)
chain: B1 chain with I69K, K100Y
  apparent Kd (screen): 0.869 nM

B27: A47G (designed binder)
chain: B1 chain with A47G, I69K
  apparent Kd (screen): 0.593 nM

B28: A10K (designed binder)
chain: B1 chain with A10K, I69K
  apparent Kd (screen): 0.49 nM

B29: E3I (designed binder)
chain: B1 chain with E3I, I69K
  apparent Kd (screen): 12.5 nM

B30: A46E (designed binder)
chain: B1 chain with A46E, I69K
  apparent Kd (screen): 5.84 nM

B31: S77T (designed binder)
chain: B1 chain with I69K, S77T
  apparent Kd (screen): 2.25 nM

B32: E89A (designed binder)
chain: B1 chain with I69K, E89A
  apparent Kd (screen): 1.4 nM

B33: E14F (designed binder)
chain: B1 chain with E14F, I69K
  apparent Kd (screen): 29.5 nM

B34: Y101Q (designed binder)
chain: B1 chain with I69K, Y101Q
  apparent Kd (screen): 1.27 nM

B35: E72Y (designed binder)
chain: B1 chain with I69K, E72Y
  apparent Kd (screen): 1.4 nM

B36: E86K (designed binder)
chain: B1 chain with I69K, E86K
  apparent Kd (screen): 0.593 nM

B37: E49I (designed binder)
chain: B1 chain with E49I, I69K
  apparent Kd (screen): 20.2 nM

B38: K23E (designed binder)
chain: B1 chain with K23E, I69K
  apparent Kd (screen): 0.446 nM

B39: A30H (designed binder)
chain: B1 chain with A30H, I69K
  apparent Kd (screen): 0.869 nM

B40: E92N (designed binder)
chain: B1 chain with I69K, E92N
  apparent Kd (screen): 1.05 nM

B41: E72G (designed binder)
chain: B1 chain with I69K, E72G
  apparent Kd (screen): 1.54 nM

B42: E62F (designed binder)
chain: B1 chain with E62F, I69K
  apparent Kd (screen): 0.446 nM

B43: L79D (designed binder)
chain: B1 chain with I69K, L79D
  apparent Kd (screen): 16.7 nM

B44: V6M (designed binder)
chain: B1 chain with V6M, I69K
  apparent Kd (screen): 2.73 nM

B45: K27A (designed binder)
chain: B1 chain with K27A, I69K
  apparent Kd (screen): 0.79 nM

B46: M58D (designed binder)
chain: B1 chain with M58D, I69K
  apparent Kd (screen): 22.2 nM

B47: E86D (designed binder)
chain: B1 chain with I69K, E86D
  apparent Kd (screen): 0.49 nM

B48: L43G (designed binder)
chain: B1 chain with L43G, I69K
  apparent Kd (screen): 1.4 nM

B49: A90H (designed binder)
chain: B1 chain with I69K, A90H
  apparent Kd (screen): 0.446 nM

B50: E81D (designed binder)
chain: B1 chain with I69K, E81D
  apparent Kd (screen): 1.69 nM

B51: L99R (designed binder)
chain: B1 chain with I69K, L99R
  apparent Kd (screen): 12.5 nM

B52: E81I (designed binder)
chain: B1 chain with I69K, E81I
  apparent Kd (screen): 0.593 nM

B53: V74N (designed binder)
chain: B1 chain with I69K, V74N
  apparent Kd (screen): 16.7 nM

B54: D53N (designed binder)
chain: B1 chain with D53N, I69K
  apparent Kd (screen): 0.79 nM

B55: E62S (designed binder)
chain: B1 chain with E62S, I69K
  apparent Kd (screen): 0.49 nM

B56: A55G (designed binder)
chain: B1 chain with A55G, I69K
  apparent Kd (screen): 8.56 nM

B57: A9L (designed binder)
chain: B1 chain with A9L, I69K
  apparent Kd (screen): 0.956 nM

B58: E61G (designed binder)
chain: B1 chain with E61G, I69K
  apparent Kd (screen): 1.54 nM

B59: E86A (designed binder)
chain: B1 chain with I69K, E86A
  apparent Kd (screen): 0.653 nM
